Laboratory results from patent US20090263894A1 (AbbVie / Abbott, published 2009).

T1: NGAL rAg K15A displayed on yeast (human, UniProt P80188 21-198)
T1 construct: Yeast display AGA2 fusion as m5
T1 chain: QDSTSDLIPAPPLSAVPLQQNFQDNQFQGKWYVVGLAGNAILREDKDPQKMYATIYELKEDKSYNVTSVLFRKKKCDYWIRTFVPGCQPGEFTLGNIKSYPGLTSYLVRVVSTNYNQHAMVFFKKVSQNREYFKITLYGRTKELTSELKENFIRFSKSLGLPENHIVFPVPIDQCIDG

T2: NGAL rAg R109A displayed on yeast (human, UniProt P80188 21-198)
T2 construct: Yeast display AGA2 fusion as m5
T2 chain: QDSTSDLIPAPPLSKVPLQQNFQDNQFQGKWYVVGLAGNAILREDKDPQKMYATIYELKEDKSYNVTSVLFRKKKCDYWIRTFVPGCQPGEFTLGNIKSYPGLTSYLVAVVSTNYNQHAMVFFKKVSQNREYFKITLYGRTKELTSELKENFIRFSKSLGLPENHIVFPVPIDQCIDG

T3: NGAL rAg S14A displayed on yeast (human, UniProt P80188 21-198)
T3 construct: Yeast display AGA2 fusion as m5
T3 chain: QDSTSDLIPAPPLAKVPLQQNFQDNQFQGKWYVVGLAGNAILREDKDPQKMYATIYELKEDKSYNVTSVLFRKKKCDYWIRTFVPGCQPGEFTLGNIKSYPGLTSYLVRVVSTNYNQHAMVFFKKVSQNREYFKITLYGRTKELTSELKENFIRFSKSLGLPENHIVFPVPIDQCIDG

T4: NGAL rAg S158A displayed on yeast (human, UniProt P80188 21-198)
T4 construct: Yeast display AGA2 fusion as m5
T4 chain: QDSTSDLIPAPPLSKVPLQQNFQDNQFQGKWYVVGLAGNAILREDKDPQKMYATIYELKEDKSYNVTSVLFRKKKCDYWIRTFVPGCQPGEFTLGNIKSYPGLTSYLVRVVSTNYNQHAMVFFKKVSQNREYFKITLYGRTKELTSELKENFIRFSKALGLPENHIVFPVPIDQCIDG

T5: NGAL rAg S112A displayed on yeast (human, UniProt P80188 21-198)
T5 construct: Yeast display AGA2 fusion as m5
T5 chain: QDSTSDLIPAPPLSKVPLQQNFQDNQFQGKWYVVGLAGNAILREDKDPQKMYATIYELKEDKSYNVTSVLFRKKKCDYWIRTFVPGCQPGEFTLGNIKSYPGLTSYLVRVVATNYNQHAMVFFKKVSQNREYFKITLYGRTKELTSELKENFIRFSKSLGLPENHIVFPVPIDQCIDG

T6: NGAL rAg Q117A displayed on yeast (human, UniProt P80188 21-198)
T6 construct: Yeast display AGA2 fusion as m5
T6 chain: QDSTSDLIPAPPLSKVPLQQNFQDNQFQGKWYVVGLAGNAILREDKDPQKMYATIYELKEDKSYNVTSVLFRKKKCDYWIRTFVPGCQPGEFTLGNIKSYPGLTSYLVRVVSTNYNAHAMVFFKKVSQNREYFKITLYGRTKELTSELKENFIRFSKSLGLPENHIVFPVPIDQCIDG

T7: NGAL rAg H118A displayed on yeast (human, UniProt P80188 21-198)
T7 construct: Yeast display AGA2 fusion as m5
T7 chain: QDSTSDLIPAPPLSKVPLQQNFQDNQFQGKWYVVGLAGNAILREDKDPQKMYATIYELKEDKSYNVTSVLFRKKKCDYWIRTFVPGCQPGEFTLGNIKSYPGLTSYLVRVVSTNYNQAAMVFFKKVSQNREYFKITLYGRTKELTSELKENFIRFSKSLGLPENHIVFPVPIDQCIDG

T8: NGAL rAg A119G displayed on yeast (human, UniProt P80188 21-198)
T8 construct: Yeast display AGA2 fusion as m5
T8 chain: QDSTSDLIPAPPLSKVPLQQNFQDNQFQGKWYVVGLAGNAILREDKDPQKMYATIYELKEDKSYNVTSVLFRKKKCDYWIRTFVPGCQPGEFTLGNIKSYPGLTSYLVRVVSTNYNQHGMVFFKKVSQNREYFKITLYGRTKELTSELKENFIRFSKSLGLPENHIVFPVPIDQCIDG


Columns and labels:
[1] = biological target: T9, wild-type NGAL antigen displayed on yeast (AGA2 fusion) (human, UniProt P80188 21-198); experiment: flow cytometry, mAb titrated on yeast displaying NGAL
T9 construct: also called WT
Experimental: (§1) The side chain of each of the NGAL rAg residues identified from the epitope selections was altered by site-directed mutagenesis to alanine to confirm the functional epitope (direct contact residues) of each NGAL mAb subclone.
(§2) The change in Gibbs free binding energy (ΔΔG_Ala-WT) was determined to assess the energetic impact of each alanine substitution for mAb binding. The change in Gibbs free binding energy upon alanine substitution was calculated using the following equation [2],
(§3) For these experiments, observed fluorescence (F) was used to solve for KD using equation [1]. The KD derived from equation [1] one was then used in equation [2] to derive the change in Gibbs free binding energy upon alanine substitution. The KD is read from the abscissa of each of the curves at the inflection point.

[2] = biological target: T1, NGAL rAg K15A displayed on yeast; experiment: flow cytometry, mAb titrated on yeast displaying NGAL; from the highest mAb concentration tested
Experimental: as §1, §2, §3

[3] = biological target: T2, NGAL rAg R109A displayed on yeast; experiment: as above
Experimental: as §1, §2, §3

[4] = biological target: T1, NGAL rAg K15A displayed on yeast; experiment: flow cytometry, mAb titrated on yeast displaying NGAL; highest mAb concentration tested listed as KD
From the text: as §1, §3

[5] = biological target: T2, NGAL rAg R109A displayed on yeast; experiment: as above
From the text: as §1, §3

[6] = biological target: T3, NGAL rAg S14A displayed on yeast; experiment: flow cytometry titration of the mAb on yeast displaying the NGAL antigen, detection with GaM-PE, fractional binding
[7] = biological target: T4, NGAL rAg S158A displayed on yeast; experiment: as above
[8] = biological target: T9, wild-type NGAL antigen displayed on …; experiment: as above
[9] = biological target: T5, NGAL rAg S112A displayed on yeast; experiment: as above
[10] = biological target: T6, NGAL rAg Q117A displayed on yeast; experiment: as above
[11] = biological target: T7, NGAL rAg H118A displayed on yeast; experiment: as above
[12] = biological target: T8, NGAL rAg A119G displayed on yeast; experiment: as above

Kd [1]	ΔKD (KD against KD of WT) [1]	ΔΔG Ala-WT [1]	ΔKD (KD against KD of WT) [2]	ΔΔG Ala-WT [2]	ΔKD (KD against KD of WT) [3]	ΔΔG Ala-WT [3]	Kd [4]	Kd [5]	EC50 (read off the curve) [6]	EC50 (read off the curve) [7]	EC50 (read off the curve) [8]	EC50 (read off the curve) [9]	EC50 (read off the curve) [10]	EC50 (read off the curve) [11]	EC50 (read off the curve) [12]	Binder
0.204 nM	1 fold	0 kcal/mol	> 24500 fold	> 5.97 kcal/mol	> 24500 fold	> 5.97 kcal/mol	> 5000 nM	> 5000 nM	~0.3 nM	~0.2 nM	–	–	–	–	–	anti-NGAL monoclonal antibody 1-903-430 (antibody, V domains shown) VH: KIQLVQSGPELKKPGETVKISCKASGYTFTNYGMNWVKQAPGKGLKWMGWININTGEPTYAEEFKGRFAFSLETSATTAFLQINNLKNEDTATYLCARDSYSGGFDYWGQGTIVTVSS VL: DIVMTQSPSSLSVSAGEKVTLSCKSSQSLLISGDQKNYLAWYQQKPGQPPKLLIYGASTRDSGVPDRFTGSGSGADFTLTISSVQAEDLAVYYCQNDHSFPPTFGAGTKLELKR
0.0081 nM	1 fold	0 kcal/mol	–	–	–	–	–	–	–	–	~0.006 nM	~0.1 nM	~0.03 nM	~0.2 nM	~0.007 nM	anti-NGAL monoclonal antibody 1-2322-455 (antibody, V domains shown) VH: EVQLVESGGGLVQPGGSLKLSCAASGFTFNNYYMSWVRQTPERRLEWVAYISSSGGSTYYSDSVRGRFTISRDTARNTLYLQMTSLKSEDTAMYYCARHFGDYSYFDYWGQGTTLTVSS VL: DIQMTQSPASLSASVGETVTITCRASENFYSYLAWYQQKQGKSPQLLVYNAKTLAEGVPSRFSGSGSGTQFSLKINSLQPEDFGTYYCQHHYDIPLTFGAGTKLELKR
